According to patent US20250361322A1 (ICONIC THERAPEUTICS, published 2025):
Substitutions are numbered along the chain they refer to.

Legend:
Relipidated TF = Relipidated TF (UniProt P13726 33-295, limits assumed); test: cell-based or functional assay
[1] = target: T1, human Tissue Factor on human TF-positive cells (human, UniProt P13726 33-295); test: flow cytometry, titration of the MC-vc-PAB-MMAE ADC on HCT-116 cells (human TF), 4-parameter fit of MFI
T1 construct: also called hTF; CD142

[2] = target: T2, human Tissue Factor (hTF) (human, UniProt P13726 33-295); test: cell-based or functional assay
[3] = target: T2, human Tissue Factor (hTF); test: cell-based or functional assay; remark: listed apart in the source
[4] = target: T3, rabbit TF ECD-His (TF-His) protein (rabbit (Oryctolagus cuniculus), UniProt P24055 33-250); test: Biacore; antibody captured by anti-human IgG on CM5 chip, titration of rabbit TF-His, 1:1 model
T3 construct: also called rabbit TF-His
T3 sequence (P24055 other isoform, or with tags, fused parts or gaps): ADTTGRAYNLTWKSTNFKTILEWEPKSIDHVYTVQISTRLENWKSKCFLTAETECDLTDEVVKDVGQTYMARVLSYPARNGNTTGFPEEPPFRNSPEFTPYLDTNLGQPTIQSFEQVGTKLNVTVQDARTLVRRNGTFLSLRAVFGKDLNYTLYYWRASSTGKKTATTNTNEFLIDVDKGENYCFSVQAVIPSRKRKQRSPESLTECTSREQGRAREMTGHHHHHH
Description: The ability of certain antibodies was tested for binding to rabbit TF. For rabbit TF Biacore-based measurements, a given anti-TF antibody was captured by an anti-human IgG antibody covalently coupled to a CM5 chip (GE Healthcare Bio-Sciences). Association between the anti-TF antibodies and a five-point three-fold titration of rabbit TF-His starting at 100 nM was measured for 180 to 240 sec. Subsequently, dissociation between the anti-TF antibody and TF-His was measured for 1800 sec. Kinetic data was analyzed and fitted globally using a 1:1 binding model.

[5] = target: T4, pig TF ECD-His (TF-His) protein (pig (Sus scrofa)); test: Biacore; antibody captured by anti-human IgG on CM5 chip, titration of pig TF-His, 1:1 model
T4 construct: also called pig TF-His; pTF
T4 chain: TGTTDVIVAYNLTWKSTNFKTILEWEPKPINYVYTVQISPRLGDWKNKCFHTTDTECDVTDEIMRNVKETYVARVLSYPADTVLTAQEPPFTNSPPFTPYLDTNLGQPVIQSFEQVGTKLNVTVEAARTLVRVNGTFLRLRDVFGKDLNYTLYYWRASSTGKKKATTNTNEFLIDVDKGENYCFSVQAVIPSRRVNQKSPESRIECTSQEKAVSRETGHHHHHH
Description: The ability of certain antibodies was tested for binding to pig TF. For pig TF Biacore-based measurements, a given anti-TF antibody was captured by an anti-human IgG antibody covalently coupled to a CM5 chip (GE Healthcare Bio-Sciences). Association between the anti-TF antibodies and a five-point three-fold titration of pig TF-His starting at 100 nM was measured for 180 to 240 sec. Subsequently, dissociation between the anti-TF antibody and TF-His was measured for 1800 sec. Kinetic data was analyzed and fitted globally using a 1:1 binding model.

human Tissue Factor (TF) = human Tissue Factor (TF) (human, UniProt P13726 33-295); test: cell-based or functional assay

B1: 25A5 (antibody, human IgG1, V domains shown)
VH: QVQLVQSGAEVKKPGASVKVSCKASGYTFDVYGISWVRQAPGQGLEWMGWIAPYSGNTNYAQKLQGRVTMTTDTSTSTAYMELRSLRSDDTAVYYCARDAGTYSPFGYGMDVWGQGTTVTVSS
VL: DIQMTQSPSTLSASVGDRVTITCRASESISNWLAWYQQKPGKAPKLLIYKAYSLEYGVPSRFSGSGSGTEFTLTISSLQPDDFATYYCQQFQKLPPFTFGGGTKVEIK
- % ETP at 10 nM Ab (TGA without antibody pre-incubation) (Relipidated TF): 99%
- % Peak IIa at 10 nM Ab (TGA without antibody pre-incubation) (Relipidated TF): 98%
- % Peak IIa at 50 nM Ab (TGA without antibody pre-incubation) (Relipidated TF): 98%
- % Peak IIa at 100 nM Ab (TGA without antibody pre-incubation) (Relipidated TF): 98%
- ETP at 10 nM Ab (TGA without antibody pre-incubation) (Relipidated TF): 2270 nM·min
- ETP at 50 nM Ab (TGA without antibody pre-incubation) (Relipidated TF): 2320 nM·min
- ETP at 100 nM Ab (TGA without antibody pre-incubation) (Relipidated TF): 2390 nM·min
- Lag Time at 10 nM Ab (TGA without antibody pre-incubation) (Relipidated TF): 4.7 min
- Lag Time at 50 nM Ab (TGA without antibody pre-incubation) (Relipidated TF): 4.8 min
- Lag Time at 100 nM Ab (TGA without antibody pre-incubation) (Relipidated TF): 5.1 min
- Peak IIa at 10 nM Ab (TGA without antibody pre-incubation) (Relipidated TF): 343 nM
- Peak IIa at 50 nM Ab (TGA without antibody pre-incubation) (Relipidated TF): 344 nM
- Peak IIa at 100 nM Ab (TGA without antibody pre-incubation) (Relipidated TF): 342 nM
- ttPeak at 10 nM Ab (TGA without antibody pre-incubation) (Relipidated TF): 8 min
- ttPeak at 50 nM Ab (TGA without antibody pre-incubation) (Relipidated TF): 8.1 min
- ttPeak at 100 nM Ab (TGA without antibody pre-incubation) (Relipidated TF): 8.5 min

B2: 25A-vc-MMAE (antibody, IgG1, V domains shown)
VH: B1 VH with S55N
VL: B1 VL with E27Q, N31S, Y52S, Y56S, K93S
modifications: MC-vc-PAB-MMAE on cysteines of the partially reduced antibody (chain and positions not stated), DAR 3-4
notes: Antibody-drug conjugate (primary ADC) of the IgG1 antibody; also called 25A ADC; 25A conjugated to MC-vc-PAB-MMAE
- EC50 [1]: 0.34 nM
- IC50, cell viability of A431 cells, Primary ADC, Continuous (FIG. 20A) [2]: 0.09 nM
- IC50, cell viability of HPAF-II cells, Primary ADC, Continuous (FIG. 22E) [2]: 0.06 nM
- IC50, cell viability of MDA-MB-231 cells, Primary ADC, Continuous (FIG. 22D) [2]: 0.14 nM
- IC50, cell viability of A431 cells, Primary ADC, 4 hr, followed by washout (FIG. 20B) [3]: 0.35 nM
- IC50, cell viability of A431 cells, Primary ADC, 4 hr, followed by washout, absence of FVIIa (FIG. 21A) [3]: 0.18 nM

B3: anti-TF antibody 25A (antibody, human IgG1, V domains shown)
VH: B1 VH with S55N
VL: B1 VL with E27Q, N31S, Y52S, Y56S, K93S
notes: Human IgG1
- Kd [4]: 50.5 nM
- Kd [5]: 18.7 nM
- IC50, cell viability of A431 cells, Secondary ADC (antibody with anti-human Fc Fab:MMAF), Continuous (FIG. 18B) [2]: 0.11 nM

B4: anti-TF antibody 25G1 (antibody, human IgG1, V domains shown)
VH: B1 VH with D30R, V31S, I51V, F106Y
VL: B1 VL with E27H, S30D, N31S, Y52S, S53Y, Y56S, Q90L, K93S
notes: Human IgG1
- Kd [4]: 3.6 nM
- Kd [5]: 2.6 nM
- IC50, cell viability of A431 cells, Secondary ADC (antibody with anti-human Fc Fab:MMAF), Continuous (FIG. 18B) [2]: 0.08 nM

B5: anti-TF antibody 25A3 (antibody, human IgG1, V domains shown)
VH: B1 VH
VL: B1 VL with R24Q, E27Q, S30N, S53N, Y56S, Q90L, K93S
notes: Human IgG1
- Kd [5]: 5.5 nM
- IC50, cell viability of A431 cells, Secondary ADC (antibody with anti-human Fc Fab:MMAF), Continuous (FIG. 18B) [2]: 0.09 nM

B6: anti-TF antibody 25A5-T (antibody, human IgG1, V domains shown)
VH: B1 VH with V31A
VL: B1 VL
notes: Human IgG1
- Kd [4]: 5.4 nM
- Kd [5]: 4.5 nM

B7: anti-TF antibody 25A5 (antibody, human IgG1, V domains shown)
VH: B1 VH
VL: B1 VL
notes: Human IgG1
- Kd [4]: 5.4 nM
- Kd [5]: 5.2 nM

B8: 25A3-vc-MMAE (antibody, IgG1, V domains shown)
VH: B1 VH
VL: B1 VL with R24Q, E27Q, S30N, S53N, Y56S, Q90L, K93S
modifications: MC-vc-PAB-MMAE on cysteines of the partially reduced antibody (chain and positions not stated), DAR 3-4
notes: Antibody-drug conjugate (primary ADC) of the IgG1 antibody; also called 25A3 ADC; 25A3 MMAE ADC
- EC50 [1]: 0.17 nM
- IC50, cell viability of A431 cells, Primary ADC, Continuous (FIG. 20A) [2]: 0.07 nM
- IC50, cell viability of HPAF-II cells, Primary ADC, Continuous (FIG. 22E) [2]: 0.05 nM
- IC50, cell viability of MDA-MB-231 cells, Primary ADC, Continuous (FIG. 22D) [2]: 0.11 nM
- IC50, cell viability of A431 cells, Primary ADC, 4 hr, followed by washout (FIG. 20B) [3]: 0.19 nM
- IC50, cell viability of A431 cells, Primary ADC, 4 hr, followed by washout, absence of FVIIa (FIG. 21A) [3]: 0.12 nM

B9: anti-TF antibody 25G9 (antibody, human IgG1, V domains shown)
VH: B1 VH with D30R, V31S, I51V, F106Y
VL: B1 VL with R24Q, E27Q, S30D, N31S, K50S, Y52S, S53Y, Y56S, Q90R, K93S
notes: Human IgG1
- Kd [4]: 4.2 nM
- Kd [5]: 3.3 nM

B10: anti-TF antibody 25G (antibody, human IgG1, V domains shown)
VH: B1 VH with D30R, V31S, I51V, S55N, F106Y
VL: B1 VL with E27Q, N31S, Y52S, Y56S, K93S
notes: Human IgG1
- Kd [4]: 75.5 nM
- Kd [5]: 26 nM

B11: 5G9 (humanized TF8-5G9, CNTO 860) (antibody, V domains shown)
VH: QVQLVESGGGVVQPGRSLRLSCKASGFNIKDYYMHWVRQAPGKGLEWIGLIDPENGNTIYDPKFQGRFTISADNSKNTLFLQMDSLRPEDTAVYYCARDNSYYFDYWGQGTPVTVSS
VL: DIQMTQSPSSLSASVGDRVTITCKASQDIRKYLNWYQQKPGKAPKLLIYYATSLADGVPSRFSGSGSGTDYTFTISSLQPEDIATYYCLQHGESPYTFGQGTKLEIT
- % FXa at 12.5 nM antibody (human Tissue Factor (TF)): 37%
- % FXa at 25 nM antibody (human Tissue Factor (TF)): 33%
- % FXa at 50 nM antibody (human Tissue Factor (TF)): 30%
- % FXa at 100 nM antibody (human Tissue Factor (TF)): 30%

B12: tisotumab vedotin (TF-011) ADC (antibody, V domains shown)
VH: EVQLLESGGGLVQPGGSLRLSCAASGFTFSNYAMSWVRQAPGKGLEWVSSISGSGDYTYYTDSVKGRFTISRDNSKNTLYLQMNSLRAEDTAVYYCARSPWGYYLDSWGQGTLVTVSS
VL: DIQMTQSPPSLSASAGDRVTITCRASQGISSRLAWYQQKPEKAPKSLIYAASSLQSGVPSRFSGSGSGTDFTLTISSLQPEDFATYYCQQYNSYPYTFGQGTKLEIK
modifications: MC-vc-PAB-MMAE on cysteines of the partially reduced antibody (chain and positions not stated), DAR 3-4
- IC50, cell viability of A431 cells, Primary ADC, Continuous (FIG. 20A) [2]: 0.05 nM
- IC50, cell viability of A431 cells, Primary ADC, 4 hr, followed by washout (FIG. 20B) [3]: 0.17 nM

B13: anti-TF antibody 43D7 (antibody, human IgG1, V domains shown)
VH: QVQLQQWGAGLLKPSETLSLTCAVYGGSLSGYYWSWIRQPPGKGLEWIGEIGASGSTRYNPSLKSRVTISVDTSKNQFSLKLSSVTAADTAVYYCARDTPYYYEGGYYYYMDVWGKGTTVTVSS
VL: EIVLTQSPGTLSLSPGERATLSCRASDSVDSSYLAWYQQKPGQAPRLLIYGAFSRANGIPDRFSGSGSGTDFTLTISRLEPEDFAVYYCQQAGVVPYTFGGGTKVEIK
notes: Human IgG1
- Kd [4]: 6.8 nM
- Kd [5]: 8.8 nM
- IC50, cell viability of A431 cells, Secondary ADC (antibody with anti-human Fc Fab:MMAF), Continuous (FIG. 18B) [2]: 0.1 nM

B14: anti-TF antibody 43D7 conjugated to MC-vc-PAB-MMAE (antibody, IgG1, V domains shown)
VH: B13 VH
VL: B13 VL
modifications: MC-vc-PAB-MMAE on cysteines of the partially reduced antibody (chain and positions not stated), DAR 3-4
- IC50, cell viability of A431 cells, Primary ADC, Continuous (FIG. 20A) [2]: 0.06 nM
- IC50, cell viability of HPAF-II cells, Primary ADC, Continuous (FIG. 22E) [2]: 0.05 nM
- IC50, cell viability of MDA-MB-231 cells, Primary ADC, Continuous (FIG. 22D) [2]: 0.14 nM
- IC50, cell viability of A431 cells, Primary ADC, 4 hr, followed by washout (FIG. 20B) [3]: 0.28 nM
- IC50, cell viability of A431 cells, Primary ADC, 4 hr, followed by washout, absence of FVIIa (FIG. 21A) [3]: 0.14 nM

B15: anti-TF antibody 43B1 conjugated to MC-vc-PAB-MMAE (antibody, IgG1, V domains shown)
VH: QVQLQESGPGLVKPSQTLSLTCTVSGGSISSGQYWSWIRQHPGKGLEWIGEIYYSGSTRYNPSLKSRVTISVDTSKNQFSLKLSSVTAADTAVYYCARDAPYYYGGGYYYYMDVWGKGTTVTVSS
VL: B13 VL with D27E, F53S, S54T, A56Q, N57T
modifications: MC-vc-PAB-MMAE on cysteines of the partially reduced antibody (chain and positions not stated), DAR 3-4
- IC50, cell viability of A431 cells, Primary ADC, Continuous (FIG. 20A) [2]: 0.08 nM
- IC50, cell viability of HPAF-II cells, Primary ADC, Continuous (FIG. 22E) [2]: 0.05 nM
- IC50, cell viability of MDA-MB-231 cells, Primary ADC, Continuous (FIG. 22D) [2]: 0.14 nM
- IC50, cell viability of A431 cells, Primary ADC, 4 hr, followed by washout (FIG. 20B) [3]: 0.36 nM
- IC50, cell viability of A431 cells, Primary ADC, 4 hr, followed by washout, absence of FVIIa (FIG. 21A) [3]: 0.19 nM

B16: anti-TF antibody 43D8 (antibody, human IgG1, V domains shown)
VH: B13 VH
VL: B13 VL with D27Q, D30S, Y33F, F53Y, N57T
notes: Human IgG1
- Kd [4]: 7.7 nM
- Kd [5]: 19.2 nM

B17: 43Ea-vc-MMAE (antibody, IgG1, V domains shown)
VH: B15 VH with A100T, G105D
VL: B13 VL with D27Q, D30S, F53S, N57T, A92V
modifications: MC-vc-PAB-MMAE on cysteines of the partially reduced antibody (chain and positions not stated), DAR 3-4
- IC50, cell viability of A431 cells, Primary ADC, Continuous (FIG. 20A) [2]: 0.09 nM
- IC50, cell viability of HPAF-II cells, Primary ADC, Continuous (FIG. 22E) [2]: 0.06 nM
- IC50, cell viability of MDA-MB-231 cells, Primary ADC, Continuous (FIG. 22D) [2]: 0.15 nM
- IC50, cell viability of A431 cells, Primary ADC, 4 hr, followed by washout (FIG. 20B) [3]: 0.43 nM
- IC50, cell viability of A431 cells, Primary ADC, 4 hr, followed by washout, absence of FVIIa (FIG. 21A) [3]: 0.24 nM
